Measurements as given in the DeepSol protein solubility set.

Assay: soluble on expression in E. coli; label from the status in PepcDB or PDB records

In the case of “METKDLIVIGGGINGAGIAADAAGRGLSVLLLEAQDLACATSSASSKLIHGGLRYLEHYEFRLVSEALSERETLLKMAPHIIFPMRFRLPHQPHLRPAWMIRIGLFMYDNIGKRVSLPASKGLKFGADSVLKPELKQGFEYSDCWVDDARLVVLNAQEVAKRGGEVRTRTKVTRARREQGVWIVDAVDSLTGETFTWRAKGLVNATGPWVKEFFDDGLQLKSPYGIRLIKGSHIVVPRVHNQPQAYILQNKDHRIVFVIPWQDDYSIIGTTDVEYKGNPHDVKIDDNEVGYLLDVYNDHFKQQLTRDDIVWTYSGVRPLCDDESDSPQAITRDYTLSVDDDNGQAPLLSVFGGKLTTYRKLAEHALDKLHKYYPQAGKAWTKDAVLPGGDIAGTRDDYAAALRRRFNLPESLTRRYSRTYGSNSELILANVKGLSDLGEDFGHDLYEAELRYLVEKEWAVTLDDVIWRRTKLGMRFDDAQKQRISDWLVSYRQQQMAKAGLEHHHHHH”, the “soluble on expression in E. coli” value is reported as “soluble”.
In the case of “ARSEKRVPMTRLRKRVAERLLEAKNSTAMLTTFNEVNMKPIMDLRKQYGEAFEKRHGIRLGFMSFYVKAVVEALKRYPEVNASIDGDDVVYHNYFDVSMAVSTPRGLVTPVLRDVDTLGMADIEKKIKELAVKGRDGKLTVEDLTGGNFTITNGGVFGSLMSTPIINPPQSAILGMHAIKDRPMAVNGQVEILPMMYLALSYDHRLIDGRESVGFLVTIKELLEDPTRLLLDV”, the “soluble on expression in E. coli” value is reported as “soluble”.
For “SNAMSEFIMNNLEQTARRWLEERGVTVEKIAELVYYLQSKYHPDLTMEECIENVNRVISKREVQNAILTGIQLDKLAEDGRLDEPLQSIIRRDEGLYGVDEILALSIVNVYGSIGFTNYGYIDKQKPGILQYLNDKSTGKCNTFLDDIVGAIAAAASSRLAHRAANAE”, the “soluble on expression in E. coli” value was “soluble”.
In the case of “MSLIPIRCHAVSGVALSTVQGETRLLMMKRVKGGFWCHVAGTVEAGETGWQTIVREFREETGIVVHELYNGQYLEQFYEHATNTVCLVPVFVVYCPPTQAVTLNHEHTEYRWSTLAEAKALAGFPGQQALYDHLWHYFVENSPSALMRVAMTEGHHHHHH”, the “soluble on expression in E. coli” value is reported as “not soluble”.
For “AQDMVSPPPPIADEPLTVNTGIYLIECYSLDDKAETFKVNAFLSLSWKDRRLAFDPVRSGVRVKTYEPEAIWIPEIRFVNVENARDADVVDISVSPDGTVQYLERFSARVLSPLDGRRTESDSQTLHIYLIVRSVDTRNIVLAVDLEKVGKNDDVFLTGWDIESFTAVVKPANFALEDRLESKLDYQLRISRQGGHHHHHH”, the “soluble on expression in E. coli” value was “soluble”.
In the case of “MKEYLKEVLDVSGEKFFILNPMIPNMDSNKPNFIIGKKSLIYTGKFAKDWNSDEILEAFAKIVRTNPDFRLIVAGDKFNLHPENPNFKEEVTQKLKTYKNVDWVGGVTREEVQKLIQQSDIGIGWRNNSLNDSLELSTKALEYGALGKPVILNRTPMHERLFGSEYPFYANSEEEFISCITQSLTNDDIYASAAETVYKVCTDFTFAKTYERISPFLWEAKDKRIRLVFAGHDLKFAKMFIDRFASRTRYEVEIDQWKGHSVNDESHSTNCLNWADVIFCEWGLGNAVWYSHRVRQGQTLIVRMHLQERETKHYLKFNYDAIDSIIAISPYIRDEFVNNCGIPSDNMVMIYNAVNCKKFDLEKYEDTQFNLGITGICPSRKRLDRAIDIFEKLKEKDSRYTLHIKGQLPTHYPWLWKKEEEKKYYEQVFKRINSSKWRDSIIFDGFGNDMDTWFQKIGYILSTSDFESFHLAPAEGMASGAFPIIIRWEGCHTIYDEDFIFENVDEAATFILKRNQVMGPNDIDVRTYVRNRFDIEKIFGDWEELIARLR”, the “soluble on expression in E. coli” value is reported as “not soluble”.
For “MDYCCVGRNNNDSVPREVTLLRVKTLMKMANHPRPGDIIQESLDELNVSLREFARAMEIAPSTASRLLTGKAALTPEMAIKLSVVIGSSPQMWLNLQNAWSLAEAEKTVVVSRLRRLVTQ”, the “soluble on expression in E. coli” value was “not soluble”.
With “MGSDKIHHHHHHMHVEDYMNETPACLLAMLTQTREDLWQAAKALTERGVTRIILTGSGTSYHGALTARSFMQQWCGLPVDVYWPFLLDDSALTLSDKALVIGISQGGGSLSTLAAMERARAAGHLTASMAGEAPAVIDRAADLVLTVPCGEERAGAKTKGYHCTILNLMLLGLAVASRQRRLSDEERKALLIRMDTTFNHLPTLIEASQAWVLNHARPLIDSADIRLTGPARLFGTVQEGALKMLETLRCPVAGYEFEEFIHGIYNAFDERSTLIMLDPFPDERQDRLAEILGGWTQHIYRIGPQVENNGKNMPFAFINDPDFAVFEYIIPLQMVCARLPPVKGIDPAIPKDPQFHQKMKSKQLN” the “soluble on expression in E. coli” value was “not soluble”.
For “MPNITWCDLPEDVSLWPGLPLSLSGDEVMPLDYHAGRSGWLLYGRGLDKQRLTQYQSKLGAAMVIVAAWCVEDYQVIRLAGSLTARATRLAHEAQLDVAPLGKIPHLRTPGLLVMDMDSTAIQIECIDEIAKLAGTGEMVAEVTERAMRGELDFTASLRSRVATLKGADANILQQVRENLPLMPGLTQLVLKLETLGWKVAIASGGFTFFAEYLRDKLRLTAVVANELEIMDGKFTGNVIGDIVDAQYKAKTLTRLAQEYEIPLAQTVAIGDGANDLPMIKAAGLGIAYHAKPKVNEKAEVTIRHADLMGVFCILSGSLNQK”, the “soluble on expression in E. coli” value was “not soluble”.
In the case of “MATDSWALAVDEQEAAAESLSNLHLKEEKIKPDTNGAVVKTNANAEKTDEEEKEDRAAQSLLNKLIRSNLVDNTNQVEVLQRDPNSPLYSVKSFEELRLKPQLLQGVYAMGFNRPSKIQENALPLMLAEPPQNLIAQSQSGTGKTAAFVLAMLSQVEPANKYPQCLCLSPTYELALQTGKVIEQMGKFYPELKLAYAVRGNKLERGQKISEQIVIGTPGTVLDWCSKLKFIDPKKIKVFVLDEADVMIATQGHQDQSIRIQRMLPRNCQMLLFSATFEDSVWKFAQKVVPDPNVIKLKREEETLDTIKQYYVLCSSRDEKFQALCNLYGAITIAQAMIFCHTRKTASWLAAELSKEGHQVALLSGEMMVEQRAAVIERFREGKEKVLVTTNVCARGIDVEQVSVVINFDLPVDKDGNPDNETYLHRIGRTGRFGKRGLAVNMVDSKHSMNILNRIQEHFNKKIERLDTDDLDEIEKIAN”, the “soluble on expression in E. coli” value is reported as “soluble”.
For “MGHHHHHHSHGLNSSRNLLIISQKSDQILNYITNGADRGATKIPVLGGHTGHSQNMIMTTLSTHEVPKVQEEIQKIDETAFIVIIPASTVMGRGFSLQKDYKSVPNDFINP”, the “soluble on expression in E. coli” value was “soluble”.
With “MLLHLIYGPTCSGKTDMAIQIAQETGWPVVALDRVQCCPQIATGSGRPLESELQSTRRIYLDSRPLTEGILDAESAHRRLIFEVDWRKSEEGLILEGGSISLLNCMAKSPFWRSGFQWHVKRLRLGDSDAFLTRAKQRVAEMFAIREDRPSLLEELAELWNYPAARPILEDIDGYRCAIRFARKHDLAISQLPNIDAGRHVELIEAIANEYLEHALSQERDFPQWPEDGAGQPVCPVTLTRIRGSRSHHHHHH” the “soluble on expression in E. coli” value was “soluble”.
In the case of “MVSVDPLATERWRSIRRLTDRDSAYKVPWFVPGPENFEALQNTKILVIGAGGLGCELLKNLALSGFRTIEVIDMDTIDVSNLNRQFLFRESDVGKSKAEVAAAFVQQRVVGCQVTAHNCRIEDKGQEFYRKFSIIICGLDSIPARRWINGMLCDLVLEMADGKPDENTIIPMIDGGTEGFKGNARVIYPKFTACIDCTLDLYPPQVNFPLCTIAHTPRLPEHCIEYIKVVVWPEEKPFEGVSLDADDPIHVEWVLERASLRAEKYNIRGVDRRLTSGVLKRIIPAVASTNAVIAASCALEALKLATNIAKPIDNYLNFTQIHGAYTSVVSMMKDDNCLTCSGGRLPFEVSPSSTLESLIIRLSERFHLKHPTLATSTRKLYCISSFMPQFEQESKENLHTSMKDLVSDGEEILVSDEALSRALTLRIQLI”, the “soluble on expression in E. coli” value is reported as “not soluble”.
For “AGNATEVPANSTVLSFCAFAVDPAKAYKDYLASGGQPITNCVKMLCTHTGTGQAITVTPEANMDQESFGGASCCLYCRCHIDHPNPKGFCDLKGKYVQIPTTCANDPVGFTLRNTVCTVCGMWKGYGCSCDQLREPLMQSADASTFLNGFAV”, the “soluble on expression in E. coli” value was “soluble”.
For “MGSDKIHHHHHHMPEEIVTRVITFFFPYDSKVEGKNDCVDTYKIHTFPEYENSDWYRGDPRDHSNGQPNGHEMWGHGQIGWWQKDENGWHWYWEDESNMPRPTQGLSEIMSTTTTTGSPLSIYSTTPSDAPETYSDTVLSVVLGF”, the “soluble on expression in E. coli” value was “not soluble”.
With “MSKKFNGKVCLVTGAGGNIGLATALRLAEEGTAIALLDMNREALEKAEASVREKGVEARSYVCDVTSEEAVIGTVDSVVRDFGKIDFLFNNAGYQGAFAPVQDYPSDDFARVLTINVTGAFHVLKAVSRQMITQNYGRIVNTASMAGVKGPPNMAAYGTSKGAIIALTETAALDLAPYNIRVNAISPGYMGPGFMWERQVELQAKVGSQYFSTDPKVVAQQMIGSVPMRRYGDINEIPGVVAFLLGDDSSFMTGVNLPIAGG” the “soluble on expression in E. coli” value was “soluble”.
For “MSHLYDPTTQYYTGEYPKQKQPAPGVQAKMTPVPDCGEKSYVGSGRLKDRKALVTGGDSGIGRAAAIAYAREGADVAINYLPAEEEDAQQVKALIEECGRKAVLLPGDLSDESFARSLVHKAREALGGLDILALVAGKQTAIPEIKDLTSEQFQQTFAVNVFALFWITQEAIPLLPKGASIITTSSIQAYQPSPHLLDYAATKAAILNYSRGLAKQVAEKGIRVNIVAPGPIWTALQISGGQTQDKIPQFGQQTPMKRAGQPAELAPVYVYLASQESSYVTAEVHGVCGGEHLG”, the “soluble on expression in E. coli” value was “not soluble”.
For “MGSDKIHHHHHHMYNVMNCIIVDDEPLAREAMKLLIEEAECLQLVGSFNSAATASDFMEQHVVDLVFLDIQMPGITGIEFARTISKRTLVIFTTAYTEYALDSYEVDAIDYLIKPVEAERFQKAVEKAQSYHSLLLQEEKEAIETIVAAEYFFVKAERRYFKVNFSDILFVEGLKDYVILQLGEQRIITRMSLKAVFDLLPKDSFLRVNKSYIVNTAHIDSFDNNDIFIKSYEIAIGNSYRDDFFEGFVMKQQRW”, the “soluble on expression in E. coli” value was “not soluble”.
With “MMFPAKIISLRGGATEAIVSADLDRKTELAQETATRWFERRLSLRSPLDPPLPERPGRPEKPELVPPTAVERRSLHSVKGRIALLHAIAHIELNAVDLALDIVARYASEPVPHSFFDGWMQVAFEEAKHFRLVRDRLVSLGADYGDLPAHDGLWQAAHSTRNDLTARLAVVPLILEARGLDVTPSLQAKMRETGDLESAAVLDVIYNDEKGHVAIGAKWFRFLCAREKKDPAATFRQLVRSNFRGPLKPPFNDLARAEAGLTPSFYRSLTSVSHSLEHHHHHH” the “soluble on expression in E. coli” value was “not soluble”.
In the case of “MPELEVKGKKLRLDEDGFLQDWEEWDEEVAEALAKDTRFSPQPIELTEEHWKIIRYLRDYFIKYGVAPPVRMLVKHCKKEVRPDCNLQYIYKLFPQGPAKDACRIAGLPKPTGCV”, the “soluble on expression in E. coli” value is reported as “soluble”.
With “MQRLEESTSCRGVGDMRKAIIVGVGMTPVGEHWRSSLRDLAVEAILNAMDDAGIDKVDSLYVGNMASGSFVEQENLGALIADWAGLGNIPAVKIEAACASGGAAVQEGAKAVLSGLEDVVLVVGVEKMTDAWPSDATRYLGYAADAEWELFHGASFVALNALIMRLYMNTYGYKEEDLALFAVNAHANGAKNPYAMFKKPITVETVMKSPYIADPLKLFDASPVCDGAAAVIITTPEKAKELGIPKDKWIEIAGMGRAIDTINLANREDFLTLKAATIAAERAYKMAGVKPEDVDFFEVHDAFTVMAALSLEALGVAKKGEGAKLAIEGQIAIDGDYPIQTMGGLKARGHPVGATGVYQVVEAVLQLRGEAPDGIQVPDAEVGLTQNIGGTGSNITVTVLRRV” the “soluble on expression in E. coli” value was “not soluble”.
In the case of “MCMDSNVSWMIREKIERTIKNLEKNNIEAYNVKNSKQLIELIDKLIPEGETVAVGGSMTLFETGIIDHIRSKNYNFLDRYKEGLSKEDIKDVFRKSFFADSYIVSTNALTENGELYNVDGNGNRVAAMLFGPDKVIVIAGINKIVKDVDEAIKRNKFVSAPINAKRLNKATPTKVGYCMDCKSQDRICNEYTLIKRQGVKGRIKVIIVEEELGYLEHHHHHH”, the “soluble on expression in E. coli” value is reported as “soluble”.
